Results: US20120065106
Substitutions are numbered along the chain they refer to. Names and notes keep the numbering of the source.

Key:
[1] = target: T1, SUMO*-GFP (engineered SUMO 2F4, Smt3 R64T R71E, fused to GFP)
T1 chain: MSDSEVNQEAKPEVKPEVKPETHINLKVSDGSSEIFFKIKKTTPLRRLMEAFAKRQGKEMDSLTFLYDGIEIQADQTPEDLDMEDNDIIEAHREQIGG

[2] = target: SUMO mutant 1C1 (R64L), GFP fusion [SUMO: Q12306]
[3] = target: SUMO mutant 2E11 (R64F; R71E), GFP fusion [SUMO: Q12306]
[4] = target: SMT3-GFP (wild-type SUMO-GFP fusion) [SUMO: Q12306]
[5] = target: SUMO mutant 1A3 (R64Q), GFP fusion [SUMO: Q12306]
[6] = target: SUMO mutant 2E4 (R64T; R71E), GFP fusion [SUMO: Q12306]

B1: ULP1 mutant 1.38 (residues 451-455: S T I I A) (protein)
chain: LVPELNEKDDDQVQKALASRENTQLMNRDNIEITVRDFKTLAPRRWLNSTIIAFFMKYIEKSTPNTVAFNSFFYTNLSERGYQGVRRWMKRKKTQIDKLDKIFTPINLNQSHWALGIIDLKKKTIGYVDSLSNGPNAMSFAILTDLQKYVMEESKHTIGEDFDLIHLDCPQQPNGYDCGIYVCMNTLYGSADAPLDFDYKDAIRMRRFIAHLILTDALK
% Cleavage of SUMO* tag [1]: 75%

B2: ULP1 mutant 2.3 (residues 451-455: A M I I A) (protein)
chain: B1 chain with S49A, T50M
% Cleavage of SUMO* tag [1]: 10%

B3: ULP1 (wild-type SUMO protease 1) (protein)
chain: B1 chain with S49D, A53E
% Cleavage of SUMO* tag [1]: 0%
% Cleavage with ULP1 [1]: 0%
in vitro cleavage reaction [1]: Neither protease cleaved SUMO*
in vitro cleavage, protease titration [1]: incubated with increasing amounts of Ulp1 up to 1000 fold excess of the enzyme concentration required to fully cleave SUMO and still no cleavage was detected
in vitro cleavage, protease titration (SDS-PAGE) [1]: ULP1 does not cleave SUMO* tag
% Cleavage with ULP1 [2]: 10%
% Cleavage with ULP1 [3]: 0%
% Cleavage with ULP1 [4]: 100%
in vitro cleavage (SDS-PAGE and anti-Smt3 Western blot) [4]: wild-type SUMO (Smt3) is cleaved by ULP1 and SENP2 (SUMO protease 1 and 2) in vitro
in vitro cleavage, protease titration (SDS-PAGE) [4]: ULP1 cleaves the SMT3 tag
% Cleavage with ULP1 [5]: 10%
% Cleavage with ULP1 [6]: 0%

B4: ULP1 mutant 1.48 (residues 451-455: S T I I M) (protein)
chain: B1 chain with A53M
% Cleavage of SUMO* tag [1]: 75%

B5: SUMO* protease 1 (ULP1 mutant 2.2; D451S, T452G, E455S) (protein)
chain: MGLVPELNEKDDDQVQKALASRENTQLMNRDNIEITVRDFKTLAPRRWLNSGIISFFMKYIEKSTPNTVAFNSFFYTNLSERGYQGVRRWMKRKKTQIDKLDKIFTPINLNQSHWALGIIDLKKKTIGYVDSLSNGPNAMSFAILTDLQKYVMEESKHTIGEDFDLIHLDCPQQPNGYDCGIYVCMNTLYGSADAPLDFDYKDAIRMRRFIAHLILTDALKLEHHHHHH
% Cleavage of SUMO* tag [1]: 100%
in vitro cleavage, protease titration (SDS-PAGE) [1]: SUMO* protease 1 cleaves the SUMO* tag
in vitro cleavage, protease titration (SDS-PAGE) [4]: SUMO* protease 1 cleaves wild type SUMO, but less efficiently than SUMO*
